Reference: PMC8993221, “Agl24 is an ancient archaeal homolog of the eukaryotic N-glycan chitobiose synthesis enzymes” (eLife, 2022)

Substrate: CC(=O)N[C@H]1[C@@H](OP(=O)(O)OP(=O)(O)OC[C@H]2O[C@@H](n3ccc(=O)[nH]c3=O)[C@H](O)[C@@H]2O)O[C@H](CO)[C@@H](O)[C@@H]1O
Assay: purified protein
Format: biochemical, Sulfolobus acidocaldarius
Settings: 0.5 mM acceptor-2 (phenyl-O-C11H22-PP-GlcNAc), TBS with 5 mM MgCl2, pH 7.5, 60 °C, 10 hr, UDP-GlcNAc 0.5-12 mM

B1: Agl24 (Saci1262) (Sulfolobus acidocaldarius DSM 639) (protein)
chain: MIDNPLLIIASGGGHTGFARAIAEYLPFKPDFVIPENDRFSKDMLLDYARKLYYVKKGKDPGQGNIVLMRNFLKIIIESGKIPKYLATIATGSNHSLIPAMFQKIKGSALYVTESQDRIITRGKTVSVLSKFSRHVFLHWNEQKGLYDNGVVVGPIVEKPKYKSENKGYILVTTGSMGFKKLFDSLLNLRGNYKFVIQTGKVDPTPYIEKKPDWSFFSFDKDIERYIANAELVITHQGKTAMESVVMYGKPTIIVYNKDWKSATTKQDTILYSKILGATFLDDPSTWDSIKVLEDSIQNVRKPNQFEIGTPKLIDIILSELAEFLRE
notes: full length (327 residues), C-terminal TEV site-GFP-His8 fusion (pWaldo, plasmid pHD0499), tags kept; E. coli BL21 membranes, DDM-solubilised, Ni purified
- Km: 1370 ± 130 µM
